Positions count from the first letter of the chain named. One block for each binder: values may come before it.
How the values were obtained:
[1] = molecular target: T1, mouse IL-17F (mouse, UniProt Q7TNI7 29-161); experiment: binding ELISA
T1 sequence (looked up): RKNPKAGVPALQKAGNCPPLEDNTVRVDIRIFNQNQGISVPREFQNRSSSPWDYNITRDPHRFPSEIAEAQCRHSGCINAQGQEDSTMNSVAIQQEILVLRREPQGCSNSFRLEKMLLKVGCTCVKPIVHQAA
Procedure: (§1) Binding of a selected panel of anti-IL-17 Nanobodies to IL-17 of other species was assessed using a binding ELISA. […] HRP (horseradish peroxidase) conjugated anti-myc (Serotec, MCA 2200P) was used for detection using esTMB as substrate.

[2] = molecular target: T2, rat IL-17F (rat, UniProt Q5BJ95 29-161); experiment: binding ELISA
T2 sequence (looked up): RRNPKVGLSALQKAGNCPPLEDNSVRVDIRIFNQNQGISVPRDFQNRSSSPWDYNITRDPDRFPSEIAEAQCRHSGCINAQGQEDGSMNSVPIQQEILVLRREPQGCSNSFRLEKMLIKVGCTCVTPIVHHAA
Procedure: as §1

[3] = molecular target: T3, human IL-17C (human, UniProt Q9P0M4 19-197); experiment: SPR, cytokine on chip
T3 construct: expressed in E. coli; also called hIL-17C
T3 sequence (looked up): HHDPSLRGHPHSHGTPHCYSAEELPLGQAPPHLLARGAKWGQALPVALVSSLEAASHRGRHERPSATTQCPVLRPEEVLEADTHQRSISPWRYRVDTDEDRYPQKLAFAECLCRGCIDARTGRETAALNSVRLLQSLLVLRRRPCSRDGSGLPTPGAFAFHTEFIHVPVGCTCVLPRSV
Source text: (§2) Human IL-17B, IL-17C, IL-17D or IL-17E were all expressed in E. coli, and covalently bound to a CM sensor chip surface via amine coupling using EDC/NHS for activation and HCl for deactivation.
(§3) Next, binding buffer was sent over the chip at the same flow rate to allow spontaneous dissociation of bound Nanobody or antibody.

[4] = molecular target: T4, human IL-17E (human, UniProt Q9H293 33-177); experiment: SPR, cytokine on chip
T4 construct: expressed in E. coli; also called hIL-17E
T4 sequence (looked up): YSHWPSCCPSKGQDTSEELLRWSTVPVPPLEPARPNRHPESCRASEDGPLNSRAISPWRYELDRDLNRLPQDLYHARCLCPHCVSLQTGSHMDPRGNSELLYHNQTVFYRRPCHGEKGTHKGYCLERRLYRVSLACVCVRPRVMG
Source text: as §2, §3

[5] = molecular target: T5, human IL-17B (human, UniProt Q9UHF5 21-180); experiment: SPR, cytokine on chip
T5 construct: expressed in E. coli; also called hIL-17B
T5 sequence (looked up): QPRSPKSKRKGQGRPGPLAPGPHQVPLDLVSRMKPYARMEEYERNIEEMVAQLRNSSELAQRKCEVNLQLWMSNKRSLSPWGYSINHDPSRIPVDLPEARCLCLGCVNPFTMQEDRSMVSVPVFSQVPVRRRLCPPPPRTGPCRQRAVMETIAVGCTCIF
Source text: as §2, §3

[6] = molecular target: T6, human IL-17D (human, UniProt Q8TAD2 18-202, limits assumed); experiment: SPR, cytokine on chip
T6 construct: expressed in E. coli; also called hIL-17D
T6 sequence (looked up): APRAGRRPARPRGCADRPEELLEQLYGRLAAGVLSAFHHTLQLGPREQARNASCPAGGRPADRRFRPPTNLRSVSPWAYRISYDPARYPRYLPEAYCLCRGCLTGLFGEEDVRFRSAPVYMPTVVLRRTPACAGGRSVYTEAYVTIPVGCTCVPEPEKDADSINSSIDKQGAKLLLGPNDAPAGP
Source text: as §2, §3

[7] = molecular target: T7, human IL-17A (human, UniProt Q16552 24-155, biotinylated with Sulfo-NHS-LC-Biotin in the AlphaScreen assays only); experiment: cell-based or functional assay
[8] = molecular target: T8, human IL-17F (human, UniProt Q96PD4 31-163, biotinylated with Sulfo-NHS-LC-Biotin in the AlphaScreen assays only); experiment: SPR Biacore, hIL-17F on chip; periplasmic extract (*); NB = no binding
T8 construct: also called hIL-17F; recombinant human IL-17F
T8 sequence: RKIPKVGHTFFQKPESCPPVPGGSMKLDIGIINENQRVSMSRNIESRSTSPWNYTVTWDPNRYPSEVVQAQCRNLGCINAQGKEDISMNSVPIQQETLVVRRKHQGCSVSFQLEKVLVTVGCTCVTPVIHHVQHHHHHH

[9] = molecular target: T7, human IL-17A; experiment: AlphaScreen competition, hIL-17A - IL-17RC-Fc;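 further: Read-out after 1 h at room temperature with the receptor Fc-fusion, Acceptor beads and streptavidin-coated Donor beads present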
Procedure: (§4) To this mixture, the IL-17RA or IL-17RC Fc-fusions, Acceptor beads and the streptavidin Donor beads were added and further incubated for 1 hour at RT.

[10] = molecular target: T9, human IL-17A/F heterodimer (human, UniProt Q16552 24-155; Q96PD4 31-163, limits assumed, biotinylated with Sulfo-NHS-LC-Biotin in the AlphaScreen assays only); experiment: SPR Biacore, hIL-17A/F on chip; purified protein
T9 construct: also called hIL-17A/F

[11] = molecular target: T9, human IL-17A/F heterodimer; experiment: AlphaScreen competition, hIL-17A/F - IL-17RA-Fc
Procedure: as §4

[12] = molecular target: T9, human IL-17A/F heterodimer; experiment: AlphaScreen competition, hIL-17A/F - IL-17RC-Fc
Procedure: as §4

[13] = molecular target: T7, human IL-17A; experiment: SPR Biacore, hIL-17A on chip; purified protein
[14] = molecular target: T9, human IL-17A/F heterodimer; experiment: cell-based or functional assay
[15] = molecular target: T7, human IL-17A; experiment: AlphaScreen competition, hIL-17A - IL-17RA-Fc;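 further: receptor Fc-fusion plus Acceptor and streptavidin Donor beads incubated with the mixture for 1 h at room temperature before reading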
Procedure: as §4

T9 sequence (Q16552 24-155 limits assumed, chain 1 of 2, one chain of several): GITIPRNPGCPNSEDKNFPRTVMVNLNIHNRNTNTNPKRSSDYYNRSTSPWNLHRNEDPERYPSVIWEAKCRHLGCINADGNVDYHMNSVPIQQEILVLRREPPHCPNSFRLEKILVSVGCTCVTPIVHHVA
T7 sequence (Q16552 other isoform, or with tags, fused parts or gaps): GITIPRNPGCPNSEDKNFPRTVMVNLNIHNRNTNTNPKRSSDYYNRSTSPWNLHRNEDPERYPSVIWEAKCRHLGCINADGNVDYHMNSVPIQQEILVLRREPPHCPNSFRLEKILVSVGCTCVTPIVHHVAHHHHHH

B2: 07B09 (VHH)
VHH: EVQLVESGGGLVQAGGSLRLSCGASGGTFSSYATGWFRQAPGKEREFVAVLRWSDGHTAYADSVKGRFTISRDGAKNTMYLQMSSLKPEDTAIYYCTTATRPGEWDYWGQGTQVTVSS
notes: Class 3
- binding result [3]: no binding
- binding result [4]: no binding
- binding result [5]: no binding
- binding result [6]: no binding
- binding result [1]: no binding (tested: 250 nM)
- binding result [2]: no binding (tested: 250 nM)

B3: 24G10 (VHH)
VHH: B2 VHH with S25A, L51F, G56S, M79L
notes: Class 3
- binding result [3]: no binding
- binding result [4]: no binding
- binding result [5]: no binding
- binding result [6]: no binding
- binding result [1]: no binding (tested: 250 nM)
- binding result [2]: no binding (tested: 250 nM)

B4: 08H01 (VHH)
VHH: B2 VHH with G56S, K65E, M79V, A99G, D106H
notes: Class 3
- binding result [3]: no binding
- binding result [4]: no binding
- binding result [5]: no binding
- binding result [6]: no binding
- binding result [1]: no binding (tested: 250 nM)
- binding result [2]: no binding (tested: 250 nM)

B5: 02A10 (VHH)
VHH: EVQLVESGGGLVQPGGSLRLSCAASGFALGYYAIGWFRQAPGKEREGVSCDSSSDGRTYYGDSVKGRFTISTDSAKNTVYLQMNSLKPEDTAVYYCATCTDFEYDYWGQGTQVTVSS
notes: Class 2 Nanobody (anti-IL-17A and IL-17A/F); not shown: c-myc, His6 tag
- IL-17A-induced IL-6 production in HT-1080 cells, Emax [7]: 104%
- IL-17A-induced IL-6 production in HT-1080 cells, IC50 [7]: 4.3 nM
- binding result [8]: no binding
- IC50 [9]: 0.381 nM
- koff [10]: 0.00028 s⁻¹
- IC50 [11]: 0.199 nM
- IC50 [12]: 0.248 nM
- koff [13]: 0.00022 s⁻¹
- IL-17A/F-induced IL-6 production in HT-1080 cells, Emax [14]: 98.5%
- IL-17A/F-induced IL-6 production in HT-1080 cells, IC50 [14]: 29.2 nM
- IC50 [15]: 0.115 nM

B6: 04B10 (VHH)
VHH: EVQLVESGGGLVQAGGSQSLSCVASGTIVNINVMGWYRQAPGKQRELVALITSGGGTTYGDSVKGRFTISIDNAKNTVILQMNSLEAEDTAVYYCAAEIGYYSGGTYFSSEAHWGQGTQVTVSS
notes: as for B5
- IL-17A-induced IL-6 production in HT-1080 cells, Emax [7]: 99.7%
- IL-17A-induced IL-6 production in HT-1080 cells, IC50 [7]: 5.1 nM
- binding result [8]: no binding
- IC50 [9]: 0.366 nM
- koff [10]: 0.0005 s⁻¹
- IC50 [11]: 0.095 nM
- IC50 [12]: 0.052 nM
- koff [13]: 0.0004 s⁻¹
- IL-17A/F-induced IL-6 production in HT-1080 cells, Emax [14]: 97%
- IL-17A/F-induced IL-6 production in HT-1080 cells, IC50 [14]: 59.2 nM
- IC50 [15]: 0.068 nM

B10: 04F09 (VHH)
VHH: EVQLVESGGGLVQPGGSLRLSCAASGRTFSTHAMGWFRQAPGKERDFVAAIRWSDGSSFYADSVKGRFTISRDNAKNAVYLQSNSLKSEDTAVYVCYADVEGPTALHKYWGRGTQVTVSS
notes: as for B5
- IL-17A-induced IL-6 production in HT-1080 cells, Emax [7]: 111%
- IL-17A-induced IL-6 production in HT-1080 cells, IC50 [7]: 9.7 nM
- binding result [8]: no binding
- IC50 [9]: 0.468 nM
- koff [10]: 0.0081 s⁻¹
- IC50 [11]: 3.98 nM
- IC50 [12]: 3.15 nM
- koff [13]: 0.00063 s⁻¹
- IL-17A/F-induced IL-6 production in HT-1080 cells, Emax [14]: 68.5%
- IL-17A/F-induced IL-6 production in HT-1080 cells, IC50 [14]: 45.9 nM
- IC50 [15]: 0.099 nM

Results, then the binder that gave them:

- binding result [1]: no binding (tested: 250 nM)
- binding result [2]: no binding (tested: 250 nM)
B1: 24B08 (VHH)
VHH: EVQLVESGGGLVQAGGSLRLSCAVSGGTFSTYKMGWFRQAPGKEREIVARISTNGPTAYAEFVKGRFTVSRENTKNTVYLQMNSLNIEDTAVYYCAAGYDSLFAGYDYWGQGTQVTVSS
notes: Class 3

- binding result [3]: no binding
- binding result [4]: no binding
- binding result [5]: no binding
- binding result [6]: no binding
- binding result [1]: no binding (tested: 250 nM)
- binding result [2]: no binding (tested: 250 nM)
B7: 16A04 (VHH)
VHH: EVQLVESGGGLVQAGGSLRLSCAASGRTFSSYVVGWFRQAPGKEREFIGAISGSGDSIYYAVSEKDRFTISRDNGKNTLYLQMSSLKAEDTAVYYCTADQEFGYLRFGRSEYWGQGTQVTVSS
notes: Class 3; also called IL17MS16A04

- binding result [3]: no binding
- binding result [4]: no binding
- binding result [5]: no binding
- binding result [6]: no binding
- binding result [1]: no binding (tested: 250 nM)
- binding result [2]: no binding (tested: 250 nM)
B8: 06E11 (VHH)
VHH: EVQLVESGGGLVQAGGSLRLSCPVSGRAFSRGRLGWFRQAPGKEREFVAVAHWSGAITSYADSVKGRFTFSRDNAKNTMNLQMNSLKPEDTAVYYCAADSETSGNWVYWGQGTQVTVSS
notes: Class 3

- binding result [3]: no binding
- binding result [4]: no binding
- binding result [5]: no binding
- binding result [6]: no binding
- binding result [1]: no binding (tested: 250 nM)
- binding result [2]: no binding (tested: 250 nM)
B9: 07B11 (VHH)
VHH: EVQLVESGGGLVQAGGSLRLSCVASGRAFSSYVMGWFRQAPGMEREFVALIRWSDGITGYVDSVKGRFTISRDNAKNTVYLQMNSLKPEDTAVYYCAAAVRPGDYDYWGQGTQVTVSS
notes: Class 3
